From patent publication US10017734B2, “Method for producing dopaminergic neurons” (TAKEDA PHARMACEUTICAL COMPANY LIMITED, priority 2013, dated 2018) come the findings set out here.

Test [1] relates to floor plate cells induced from human iPS cell (253G1 strain, 201B7 strain). Description: Study of various MEK inhibitors (including FGFR inhibitor): NURR1 expression by quantitative RT-PCR on day 45. The format is cell-based. Particulars: for expression of NURR1: 253G1 strain, added to ascorbic acid and dbcAMP, 3 μM PD0325901, 3 μM PD184352, 10 μM SU5402. The source says: Whether midbrain dopaminergic neuron can be induced in a medium containing any of PD184352 (Axon MedChem), SU5402 (FGF receptor (FGFR) inhibitor, Wako Pure Chemical Industries, Ltd.) and PD173074 (FGFR inhibitor, Axon MedChem) instead of PD0325901 in the aforementioned (A) Neuro/B27 was studied.
Floor plate cells were induced by a method similar to the methods described in Reference Examples 1 to 3, the medium was exchanged with Neuro/B27 added with (1) 3 factors of ascorbic acid, dbcAMP and PD0325901, (2) 2 factors of ascorbic acid and dbcAMP, (3) ascorbic acid, dbcAMP and 3 μM PD184352, (4) ascorbic acid, dbcAMP and 10 μM SU5402, or (5) ascorbic acid, dbcAMP and 0.1 μM PD173074 on day 13 of culture, and the cells were cultured at 37° C. under 5% CO2 for not less than 30 days. The medium was exchanged every 3-4 days during the above-mentioned culture periods. On day 45 of culture, the cells were recovered, and expression variation of NURR1 was examined. In 253G1 strain, the expression of NURR1 was elevated by the addition of PD0325901, PD184352 or SU5402 and, in 201B7 strain, the expression of NURR1 was elevated by the addition of all 4 kinds.

Test [2] relates to human iPS cell (253G1 strain, 201B7 strain). Description: Floor plate cell marker expression by quantitative RT-PCR on day 13 of culture. It is filed as cell-based. Particulars: FGF8 added in addition to the 5 kinds (All+FGF8). The method, then:
The medium after preculture as described in the above-mentioned Reference Example 2 was exchanged with a differentiation induction medium containing factors inducing differentiation into floor plate cell (LDN193189 (0.5 μM, Axon MedChem B.V.), SB431542 (10 μM, Wako Pure Chemical Industries, Ltd.), purmorphamine (0.5 μM, Merck), SHH (200 ng/ml, R&D systems) and CHIR99021 (1 μM, Axon MedChem)) (day 0 of culture), and the cells were cultured at 37° C. under 5% CO2 for 5 days. Then, the medium was exchanged with a differentiation induction medium containing 0.5 μM LDN193189 and 1 μM CHIR99021, and the cells were cultured at 37° C. under 5% CO2 for 5-8 days (total 10-13 days). […]
To examine expression variation of floor plate cell marker due to the presence or absence of factors inducing differentiation into floor plate cell (LDN193189, SB431542, purmorphamine, SHH and CHIR99021), the cells on day 13 of culture were recovered, and total RNA fraction was purified using RNeasy (Qiagen). Using PrimeScript RT reagent kit (Takara Bio Inc.), cDNA was synthesized, quantitative RT-PCR was performed, and the gene expression levels of floor plate cell markers FOXA2 and LMX1A were measured. […]

Test [3] has as its system floor plate cells induced from human iPS cell (253G1 strain, 201B7 strain). Briefly: TH and NURR1 expression by quantitative RT-PCR on day 26 of culture. The format is cell-based. The method, then:
Floor plate cells were induced by a method similar to the methods described in Reference Examples 1 to 3, the medium was exchanged with Neuro/B27 added with one or more kinds of 0.1 mM ascorbic acid, 0.5 mM dbcAMP, 3 μM PD0325901, and 20 ng/ml activin A (R&D), or Neuro/B27 without addition of ascorbic acid, dbcAMP, PD0325901, and activin A as a control on day 12 of culture, and the cells were cultured for 14 days more (total 26 days). The cells after culture were recovered, and the expression variation of TH and NURR1 was examined by a method similar to Reference Example 3. […] On the other hand, when ascorbic acid, dbcAMP and PD0325901 were added, the expression level was lower at the time point of day 26 of culture than the addition of ascorbic acid, dbcAMP and activin A.

The subject of test [4] is TH/hNuc double positive cells in the mouse striatum. Briefly: Transplantation of day 26 cells to mouse striatum, tissue staining for TH and hNuc. It is filed as in vivo, NOD SCID mice. How it is done: Midbrain floor plate cells were induced by a method similar to the methods described in Reference Examples 1 to 3, the medium was exchanged with Neuro/B27 added with 0.1 mM ascorbic acid, 0.5 mM dbcAMP, 3 μM PD0325901 or 0.1 mM ascorbic acid, 0.5 mM dbcAMP, 3 μM PD0325901, 20 ng/ml activin A on day 12 of culture, and the cells were cultured for 14 days more (total 26 days). After culture, the cells were washed with PBS, and dispersed by treating with TrypLE Express (Life Technologies) at 37° C. for 10 min. The cell concentration was adjusted to 1×10^5 cells/μl with Neuro/B27 medium, and the cells were maintained on ice until transplantation.
A transplantation experiment to mouse striatum was performed as follows. Twelve 8-week-old male NOD SCID mice (Charles River Laboratories Japan, Inc.) were divided into a control group and an activin A group (6 mice per each group). The cells cultured with the addition of ascorbic acid, dbcAMP, PD0325901 were used for transplantation to the control group, and the cells cultured with the addition of ascorbic acid, dbcAMP, PD0325901, activin A were used for transplantation to the activin A group. The hair of the head surgical field of the mice was shaved under pentobarbital (50 mg/kg, ip) anesthesia, and isodine was applied. Several minutes later, the skin was disinfected by wiping off isodine with Menban immersed in 0.1% Osvan aqueous solution, and the mice were fixed on a brain stereotaxis apparatus (David Kopf, David Kopf Instruments in USA). The scalp was incised from the midline, periosteum was detached, and Bregma and Lambda of the mice were exposed. “The mouse brain in stereotaxic coordinates” was referred to for the coordinate of the striatum (AP: +0.5 mm; ML: +1.8 mm), a hole was made in the cranial bone with an electric drill (ϕ0.5 mm), Hamilton syringe was inserted from the surface of the cranial bone to the depth DV: −3.5 mm, and the cells (1×10^5 cells/μl, 2 μl) were transplanted over 10 min After transplantation, the incision on the head was sutured and the mice were allowed to recover. […]

With `O=C(NOCC1CC1)c1ccc(F)c(F)c1Nc1ccc(I)cc1Cl` [PD184352, 2-(2-chloro-4-iodophenylamino)-N-cyclopropylmethoxy-3,4-difluorobenzamide], the “expression of NURR1” value in test [1] was “elevated”.

For `CCCS(=O)(=O)Nc1ccc(F)c(C(=O)c2c[nH]c3ncc(-c4ccc(Cl)cc4)cc23)c1F` [PLX4032], the “effect on expression of NURR1” value in test [1] (strain and concentration not given) is “no effect”.

Consider `Cc1c[nH]c(C=C2C(=O)Nc3ccccc32)c1CCC(=O)O` [SU5402, 3-[4-methyl-2-(2-oxo-1,2-dihydro-indol-3-ylidenemethyl)-1H-pyrrol-3-yl]-propanoic acid], for which, in test [1], the “expression of NURR1” value was “elevated”.

B1: FGF8: growth factor, fibroblast growth factor-8 (protein, UniProt P55075 23-233, looked up)
Fibroblast growth factor 8: QEGPGRGPALGRELASLFRAGREPQGVSQQHVREQSLVTDQLSRRLIRTYQLYSRTSGKHVQVLANKRINAMAEDGDPFAKLIVETDTFGSRVRVRGAETGLYICMNKKGKLIAKSNGKGKDCVFTEIVLENNYTALQNAKYEGWYMAFTRKGRPRKGSKTRQHQREVHFMKRLPRGHHTTEQSLRFEFLNYPPFTRSLRGSQRTWAPEPR
With B1, in test [2], the “expression of FOXA2 and LMX1A” value is listed as “scarcely changed”.

B2: activin A: peptidic cell proliferation and differentiation factor belonging to the TGFβ family; activator of activin receptor-like kinase-4,7 (protein, UniProt P08476 311-426, looked up)
Inhibin beta A chain: GLECDGKVNICCKKQFFVSFKDIGWNDWIIAPSGYHANYCEGECPSHIAGTSGSSLSFHSTVINHYRMRGHSPFANLKSCCVPTKLRPMSMLYYDDGQNIIKKDIQNMIVEECGCS
modifications: Inhibin beta A chain
In the case of B2, the “expression of TH and NURR1” value in test [3] (20 ng/ml activin A alone) is recorded as “scarcely elevated”; in test [3] (activin A added together with ascorbic acid and dbcAMP), “increased remarkably”. The “TH/hNuc double positive cells” value is “not less than 40%” in test [4] (4 weeks after transplantation to mouse striatum) and “not less than 50%” in test [4] (8 weeks after transplantation to mouse striatum). The “TH/hNuc double positive cells, change as compared to 8 weeks” value in test [4] (12 weeks after transplantation to mouse striatum) is listed as “did not show a remarkable increase”.
